Test results taken from IntAct's records for PubMed 29892012.

B1: Genetic suppressor element 1 (Homo sapiens), Q14687 (parent)
chain: MKGMSHEPKSPSLGMLSTATRTTATVNPLTPSPLNGALVPSGSPATSSALSAQAAPSSSFAAALRKLAKQAEEPRGSSLSSESSPVSSPATNHSSPASTPKRVPMGPIIVPPGGHSVPSTPPVVTIAPTKTVNGVWRSESRQDAGSRSSSGGRERLIVEPPLPQEKAGGPAIPSHLLSTPYPFGLSPSSVVQDSRFPPLNLQRPVHHVVPPSTVTEDYLRSFRPYHTTDDLRMSSLPPLGLDPATAAAYYHPSYLAPHPFPHPAFRMDDSYCLSALRSPFYPIPTPGSLPPLHPSAMHLHLSGVRYPPELSHSSLAALHSERMSGLSAERLQMDEELRREREREREREREREADREREKEREREREKEREQEKEREREKERERELERQREQRAREKELLAAKALEPSFLPVAELHGLRGHATEERGKPSEQLTPTRAEKLKDAGLQAPKPVQHPLHPVPTPHHTVPSLISNHGIFSLPSSSAATALLIQRTNEEEKWLARQRRLRQEKEDRQSQVSEFRQQVLEQHLDMGRPPVPAEAEHRPESTTRPGPNRHEPGGRDPPQHFGGPPPLISPKPQLHAAPTALWNPVSLMDNTLETRRAESHSLHSHPAAFEPSRQAAVPLVKVERVFCPEKAEEGPRKREPAPLDKYQPPPPPPREGGSLEHQPFLPGPGPFLAELEKSTQTILGQQRASLPQAATFGELSGPLKPGSPYRPPVPRAPDPAYIYDEFLQQRRRLVSKLDLEERRRREAQEKGYYYDLDDSYDESDEEEVRAHLRCVAEQPPLKLDTSSEKLEFLQLFGLTTQQQKEELVAQKRRKRRRMLRERSPSPPTIQSKRQTPSPRLALSTRYSPDEMNNSPNFEEKKKFLTIFNLTHISAEKRKDKERLVEMLRAMKQKALSAAVADSLTNSPRDSPAVSLSEPATQQASLDVEKPVGVAASLSDIPKAAEPGKLEQVRPQELSRVQELAPASGEKARLSEAPGGKKSLSMLHYIRGAAPKDIPVPLSHSTNGKSKPWEPFVAEEFAHQFHESVLQSTQKALQKHKGSVAVLSAEQNHKVDTSVHYNIPELQSSSRAPPPQHNGQQEPPTARKGPPTQELDRDSEEEEEEDDEDGEDEEEVPKRKWQGIEAVFEAYQEHIEEQNLERQVLQTQCRRLEARHYSLSLTAEQLSHSVAELRSQKQKMVSERERLQAELDHLRKCLALPAMHWPRGYLKGYPR
partner: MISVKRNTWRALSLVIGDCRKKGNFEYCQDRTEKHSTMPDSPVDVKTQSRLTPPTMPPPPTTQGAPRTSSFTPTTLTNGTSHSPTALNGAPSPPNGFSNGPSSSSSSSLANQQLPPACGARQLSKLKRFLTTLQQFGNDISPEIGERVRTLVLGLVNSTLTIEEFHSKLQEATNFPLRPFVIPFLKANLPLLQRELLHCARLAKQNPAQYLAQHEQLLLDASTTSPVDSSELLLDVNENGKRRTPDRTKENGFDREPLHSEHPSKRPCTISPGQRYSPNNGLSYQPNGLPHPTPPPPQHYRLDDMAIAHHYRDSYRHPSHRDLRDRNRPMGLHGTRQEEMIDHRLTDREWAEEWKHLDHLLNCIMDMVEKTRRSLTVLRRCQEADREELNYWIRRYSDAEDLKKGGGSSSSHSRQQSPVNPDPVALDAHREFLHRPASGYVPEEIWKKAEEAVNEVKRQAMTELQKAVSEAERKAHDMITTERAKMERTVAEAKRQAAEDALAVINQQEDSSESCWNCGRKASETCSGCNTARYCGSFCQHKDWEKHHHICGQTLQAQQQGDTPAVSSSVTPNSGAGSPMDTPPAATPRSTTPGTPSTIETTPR
B2: Genetic suppressor element 1 (Homo sapiens), Q14687 (parent)
chain: B1 chain
partner: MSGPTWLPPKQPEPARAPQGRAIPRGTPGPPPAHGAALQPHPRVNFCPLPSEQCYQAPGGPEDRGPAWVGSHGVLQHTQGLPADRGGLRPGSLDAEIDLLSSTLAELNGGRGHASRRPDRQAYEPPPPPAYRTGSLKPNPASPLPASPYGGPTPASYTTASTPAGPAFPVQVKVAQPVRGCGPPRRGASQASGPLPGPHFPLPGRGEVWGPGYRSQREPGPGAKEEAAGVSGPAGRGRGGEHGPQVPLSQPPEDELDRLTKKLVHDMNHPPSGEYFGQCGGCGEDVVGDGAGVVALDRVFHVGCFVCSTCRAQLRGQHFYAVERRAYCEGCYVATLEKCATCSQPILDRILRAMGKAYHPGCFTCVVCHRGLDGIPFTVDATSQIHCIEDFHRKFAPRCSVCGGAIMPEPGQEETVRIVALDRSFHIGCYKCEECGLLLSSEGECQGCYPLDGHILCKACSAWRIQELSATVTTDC
B3: Genetic suppressor element 1 (Homo sapiens), Q14687 (parent)
chain: B1 chain
partner: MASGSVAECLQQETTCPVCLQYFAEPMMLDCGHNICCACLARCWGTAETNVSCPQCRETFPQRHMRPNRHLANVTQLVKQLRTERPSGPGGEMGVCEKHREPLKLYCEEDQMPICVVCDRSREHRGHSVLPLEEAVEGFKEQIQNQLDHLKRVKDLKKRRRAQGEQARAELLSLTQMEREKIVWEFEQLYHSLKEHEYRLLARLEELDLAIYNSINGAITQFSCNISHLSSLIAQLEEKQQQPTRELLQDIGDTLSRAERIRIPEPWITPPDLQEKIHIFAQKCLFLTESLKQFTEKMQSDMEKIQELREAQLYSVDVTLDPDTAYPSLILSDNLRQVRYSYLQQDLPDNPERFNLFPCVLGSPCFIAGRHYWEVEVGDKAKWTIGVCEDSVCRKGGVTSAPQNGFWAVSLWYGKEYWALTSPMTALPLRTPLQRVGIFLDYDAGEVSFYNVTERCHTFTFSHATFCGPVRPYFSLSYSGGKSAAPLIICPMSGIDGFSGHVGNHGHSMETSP
B4: Genetic suppressor element 1 (Homo sapiens), Q14687 (parent)
chain: B1 chain
partner: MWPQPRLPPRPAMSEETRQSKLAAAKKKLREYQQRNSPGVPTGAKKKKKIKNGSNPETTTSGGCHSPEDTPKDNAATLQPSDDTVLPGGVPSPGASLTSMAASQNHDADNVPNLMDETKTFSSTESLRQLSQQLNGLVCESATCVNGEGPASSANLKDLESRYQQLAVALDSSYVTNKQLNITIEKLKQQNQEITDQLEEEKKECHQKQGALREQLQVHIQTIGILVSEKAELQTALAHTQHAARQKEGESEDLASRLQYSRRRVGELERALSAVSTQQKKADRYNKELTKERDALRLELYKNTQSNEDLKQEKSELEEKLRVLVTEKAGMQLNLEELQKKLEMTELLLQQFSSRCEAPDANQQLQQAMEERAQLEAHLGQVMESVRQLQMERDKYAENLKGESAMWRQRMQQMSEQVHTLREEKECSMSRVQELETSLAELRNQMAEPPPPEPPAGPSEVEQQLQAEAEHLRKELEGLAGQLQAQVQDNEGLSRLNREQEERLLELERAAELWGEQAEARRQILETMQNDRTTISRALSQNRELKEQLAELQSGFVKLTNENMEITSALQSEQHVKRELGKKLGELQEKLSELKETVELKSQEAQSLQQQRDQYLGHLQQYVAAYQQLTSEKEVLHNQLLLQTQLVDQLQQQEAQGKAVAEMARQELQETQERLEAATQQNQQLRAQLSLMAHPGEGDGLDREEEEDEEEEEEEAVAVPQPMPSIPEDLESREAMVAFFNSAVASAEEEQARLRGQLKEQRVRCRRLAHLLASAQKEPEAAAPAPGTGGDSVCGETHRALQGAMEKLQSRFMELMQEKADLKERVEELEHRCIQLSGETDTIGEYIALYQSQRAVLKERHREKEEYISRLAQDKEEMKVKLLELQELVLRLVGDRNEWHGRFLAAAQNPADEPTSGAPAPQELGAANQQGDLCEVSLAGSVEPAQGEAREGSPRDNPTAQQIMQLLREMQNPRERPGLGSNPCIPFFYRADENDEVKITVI
B5: Inositol polyphosphate 5-phosphatase K (Homo sapiens), Q9BT40 (parent)
chain: MSSRKLSGPKGRRLSIHVVTWNVASAAPPLDLSDLLQLNNRNLNLDIYVIGLQELNSGIISLLSDAAFNDSWSSFLMDVLSPLSFIKVSHVRMQGILLLVFAKYQHLPYIQILSTKSTPTGLFGYWGNKGGVNICLKLYGYYVSIINCHLPPHISNNYQRLEHFDRILEMQNCEGRDIPNILDHDLIIWFGDMNFRIEDFGLHFVRESIKNRCYGGLWEKDQLSIAKKHDPLLREFQEGRLLFPPTYKFDRNSNDYDTSEKKRKPAWTDRILWRLKRQPCAGPDTPIPPASHFSLSLRGYSSHMTYGISDHKPVSGTFDLELKPLVSAPLIVLMPEDLWTVENDMMVSYSSTSDFPSSPWDWIGLYKVGLRDVNDYVSYAWVGDSKVSCSDNLNQVYIDISNIPTTEDEFLLCYYSNSLRSVVGISRPFQIPPGSLREDPLGEAQPQI
partner: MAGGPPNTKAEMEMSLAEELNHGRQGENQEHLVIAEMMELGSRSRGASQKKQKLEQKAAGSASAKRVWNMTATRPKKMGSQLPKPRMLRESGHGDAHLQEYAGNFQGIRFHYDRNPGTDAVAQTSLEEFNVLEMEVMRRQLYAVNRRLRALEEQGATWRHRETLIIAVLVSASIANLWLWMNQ
B6: Inositol polyphosphate 5-phosphatase K (Homo sapiens), Q9BT40 (parent)
chain: B5 chain
B7: Inositol polyphosphate 5-phosphatase K (Homo sapiens), Q9BT40 (parent)
chain: B5 chain
partner: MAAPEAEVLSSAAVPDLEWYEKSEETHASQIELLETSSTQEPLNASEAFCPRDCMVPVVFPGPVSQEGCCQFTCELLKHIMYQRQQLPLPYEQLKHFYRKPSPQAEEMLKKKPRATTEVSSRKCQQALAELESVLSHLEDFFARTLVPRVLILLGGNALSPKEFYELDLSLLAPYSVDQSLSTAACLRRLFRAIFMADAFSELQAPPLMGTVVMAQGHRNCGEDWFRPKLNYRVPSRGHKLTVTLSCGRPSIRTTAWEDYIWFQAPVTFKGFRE
B8: Retinoic acid receptor alpha (Homo sapiens), P10276 (parent)
chain: MASNSSSCPTPGGGHLNGYPVPPYAFFFPPMLGGLSPPGALTTLQHQLPVSGYSTPSPATIETQSSSSEEIVPSPPSPPPLPRIYKPCFVCQDKSSGYHYGVSACEGCKGFFRRSIQKNMVYTCHRDKNCIINKVTRNRCQYCRLQKCFEVGMSKESVRNDRNKKKKEVPKPECSESYTLTPEVGELIEKVRKAHQETFPALCQLGKYTTNNSSEQRVSLDIDLWDKFSELSTKCIIKTVEFAKQLPGFTTLTIADQITLLKAACLDILILRICTRYTPEQDTMTFSDGLTLNRTQMHNAGFGPLTDLVFAFANQLLPLEMDDAETGLLSAICLICGDRQDLEQPDRVDMLQEPLLEALKVYVRKRRPSRPHMFPKMLMKITDLRSISAKGAERVITLKMEIPGSMPPLIQEMLENSEGLDTLSGQPGGGGRDGGGLAPPPGSCSPSLSPSSNRSSPATHSP
partner: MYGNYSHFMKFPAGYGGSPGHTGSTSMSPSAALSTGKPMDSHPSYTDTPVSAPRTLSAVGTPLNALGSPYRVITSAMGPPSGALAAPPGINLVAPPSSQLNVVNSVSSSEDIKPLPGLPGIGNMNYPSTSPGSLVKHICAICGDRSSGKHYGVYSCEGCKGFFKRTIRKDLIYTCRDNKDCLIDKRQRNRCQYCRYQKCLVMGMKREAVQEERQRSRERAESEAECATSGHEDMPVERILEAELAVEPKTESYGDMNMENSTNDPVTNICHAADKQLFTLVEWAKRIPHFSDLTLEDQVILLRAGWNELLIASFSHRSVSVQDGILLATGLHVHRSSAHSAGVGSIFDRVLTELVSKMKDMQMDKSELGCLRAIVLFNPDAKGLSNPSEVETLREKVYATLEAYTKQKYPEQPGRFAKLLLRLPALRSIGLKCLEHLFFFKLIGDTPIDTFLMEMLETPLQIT

Variants of: B1
Settings: with mtg8_human RUNX1T1, Q06455

Variant | effect of a mutation on the interaction
E368K | with no effect

Variants of: B1
Settings: with mtg8_human RUNX1T1, Q06455
Remark: another data set of the same source

Variant | effect of a mutation on the interaction
R503Q | with no effect

Variants of: B2
Settings: with trip6_human TRIP6, Q15654

Variant | effect of a mutation on the interaction
E368K | with no effect

Variants of: B2
Settings: with trip6_human TRIP6, Q15654
Remark: another data set of the same source

Variant | effect of a mutation on the interaction
R503Q | with no effect

Variants of: B3
Settings: with tri27_human TRIM27, P14373

Variant | effect of a mutation on the interaction
E368K | with no effect

Variants of: B3
Settings: with tri27_human TRIM27, P14373
Remark: another data set of the same source

Variant | effect of a mutation on the interaction
R503Q | with no effect

Variants of: B4
Settings: with goga2_human GOLGA2, Q08379

Variant | effect of a mutation on the interaction
E368K | with no effect

Variants of: B4
Settings: with goga2_human GOLGA2, Q08379
Remark: another data set of the same source

Variant | effect of a mutation on the interaction
R503Q | with no effect

Variants of: B5
Settings: with fate1_human FATE1, Q969F0

Variant | effect of a mutation on the interaction
R437K | disrupting interaction strength

Variants of: B6
Settings: with ar6p1_human ARL6IP1, Q15041
ar6p1_human ARL6IP1, Q15041, sequence (Q15041 whole entry): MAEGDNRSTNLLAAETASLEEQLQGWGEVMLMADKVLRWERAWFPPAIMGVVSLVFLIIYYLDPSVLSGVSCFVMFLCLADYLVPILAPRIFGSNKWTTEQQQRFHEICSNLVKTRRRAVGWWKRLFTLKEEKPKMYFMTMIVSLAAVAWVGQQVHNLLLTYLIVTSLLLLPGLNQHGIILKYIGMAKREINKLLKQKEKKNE

Variant | effect of a mutation on the interaction
R437K | with no effect

Variants of: B7
Settings: with md2bp_human MAD2L1BP

Variant | effect of a mutation on the interaction
R437K | disrupting interaction strength

Variants of: B8
Settings: with rxrg_human RXRG

Variant | effect of a mutation on the interaction
R83H | with no effect
